Data from paper PMC8391104, “Molecular mechanism of Mad1 kinetochore targeting by phosphorylated Bub1” (EMBO Reports, 2021).
Residue numbers refer to the chain shown, from its start. In names and notes the source's numbering stands. Where no end group is shown, it is not given here. [ ]: non-standard residue; d: D form. pT = C[C@@H](OP(=O)(O)O)[C@H](N)C(=O)O; pS = N[C@@H](COP(=O)(O)O)C(=O)O

T1: Mad1^CTD R630A (human, UniProt Q9Y6D9 597-718, R630A)
T1 construct: also called Mad1 R630A mutant; source: E. coli Rosetta 2 (DE3), purified (Strep-Tactin, TEV cleavage, Resource Q, Superdex 75); not shown: double Strep, N-terminal, cleaved; His6, N-terminal, cleaved
T1 sequence (looked up): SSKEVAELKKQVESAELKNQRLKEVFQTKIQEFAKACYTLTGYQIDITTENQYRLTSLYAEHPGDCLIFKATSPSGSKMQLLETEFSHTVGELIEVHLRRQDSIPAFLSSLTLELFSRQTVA

T2: Mad1^CTD I643A (human, UniProt Q9Y6D9 597-718, I643A)
T2 construct: also called alanine substitution of Ile643; source: E. coli Rosetta 2 (DE3), purified (Strep-Tactin, TEV cleavage, Resource Q, Superdex 75); not shown: double Strep, N-terminal, cleaved; His6, N-terminal, cleaved
T2 sequence (looked up): T1 sequence (looked up) with A34R, I47A

T3: Mad1^CTD R650A (human, UniProt Q9Y6D9 597-718, R650A)
T3 construct: also called alanine substitution of Arg650; source: E. coli Rosetta 2 (DE3), purified (Strep-Tactin, TEV cleavage, Resource Q, Superdex 75); not shown: double Strep, N-terminal, cleaved; His6, N-terminal, cleaved
T3 sequence (looked up): T1 sequence (looked up) with A34R, R54A

T4: Mad1^CTD QRI triple mutant (Q627A, R650A, I643A) (human, UniProt Q9Y6D9 597-718, Q627A | I643A | R650A)
T4 construct: also called triple alanine mutant; source: E. coli Rosetta 2 (DE3), purified (Strep-Tactin, TEV cleavage, Resource Q, Superdex 75); not shown: double Strep, N-terminal, cleaved; His6, N-terminal, cleaved
T4 sequence (looked up): T1 sequence (looked up) with Q31A, A34R, I47A, R54A

T5: Mad1^CTD QRRI quadruple mutant (Q627A, R630A, I643A, R650A) (human, UniProt Q9Y6D9 597-718, Q627A | R630A | I643A | R650A)
T5 construct: source: E. coli Rosetta 2 (DE3), purified (Strep-Tactin, TEV cleavage, Resource Q, Superdex 75); not shown: double Strep, N-terminal, cleaved; His6, N-terminal, cleaved
T5 sequence (looked up): T1 sequence (looked up) with Q31A, I47A, R54A

T6: Mad1^CTD R617A (human, UniProt Q9Y6D9 597-718, R617A)
T6 construct: also called R617A mutant of Mad1; source: E. coli Rosetta 2 (DE3), purified (Strep-Tactin, TEV cleavage, Resource Q, Superdex 75); not shown: double Strep, N-terminal, cleaved; His6, N-terminal, cleaved
T6 sequence (looked up): T1 sequence (looked up) with R21A, A34R

T7: Mad1^CTD K619A (human, UniProt Q9Y6D9 597-718, Substituting Ala for Lys619)
T7 construct: also called Ala for Lys619; source: E. coli Rosetta 2 (DE3), purified (Strep-Tactin, TEV cleavage, Resource Q, Superdex 75); not shown: double Strep, N-terminal, cleaved; His6, N-terminal, cleaved
T7 sequence (looked up): T1 sequence (looked up) with K23A, A34R

T8: Mad1^CTD Q627A (human, UniProt Q9Y6D9 597-718, Q627A)
T8 construct: also called alanine substitution of Gln627; source: E. coli Rosetta 2 (DE3), purified (Strep-Tactin, TEV cleavage, Resource Q, Superdex 75); not shown: double Strep, N-terminal, cleaved; His6, N-terminal, cleaved
T8 sequence (looked up): T1 sequence (looked up) with Q31A, A34R

B1: phosphorylated Bub1^CD1 peptide with an additional N-terminal tryptophan (peptide)
peptide: WKVQP[pS]P[pT]VHTKEALGFIMNMFQAPTS
notes: additional N-terminal tryptophan, added to confirm the peptide concentration; Bub1 conserved domain 1 (CD1), human, stated as residues 455-479; also called Bub1^CD1 peptide with an N-terminal tryptophan residue; source: synthetic peptide (Designer Bioscience UK, 95% purity)
B2: doubly phosphorylated Bub1^CD1 peptide (pSer459-pThr461) (peptide)
peptide: KVQP[pS]P[pT]VHTKEALGFIMNMFQAPTS
notes: Bub1 conserved domain 1 (CD1), human, stated as residues 455-479; also called pSer459-pThr461 peptide; source: synthetic peptide (Designer Bioscience UK, 95% purity)
B3: Mad1 C-terminal domain (Mad1^CTD) homodimer, residues 597-718 (domain or fragment, human, UniProt Q9Y6D9 597-718, looked up)
chain: T1 sequence (looked up) with A34R
notes: the C-terminal residue is Ala718; For NMR the same construct was made 15N-labelled or 2H,13C,15N-labelled in M9 minimal medium; also called wild-type Mad1^CTD; WT Mad1^CTD; source: E. coli Rosetta 2 (DE3), purified (Strep-Tactin, TEV cleavage, Resource Q, Superdex 75); not shown: double Strep, N-terminal, cleaved; His6, N-terminal, cleaved
B4: Mad1^CTD L618A (domain or fragment, human, UniProt Q9Y6D9 597-718, looked up)
chain: T1 sequence (looked up) with L22A, A34R
notes: Poorly expressed, aggregated easily, eluted broadly; the authors suspect mis-folding of the dimer; also called L618A mutant; source: E. coli Rosetta 2 (DE3), purified (Strep-Tactin, TEV cleavage, Resource Q, Superdex 75); not shown: double Strep, N-terminal, cleaved; His6, N-terminal, cleaved
B5: Mad1^CTD F629A (domain or fragment, human, UniProt Q9Y6D9 597-718, looked up)
chain: T1 sequence (looked up) with F33A, A34R
notes: Poorly expressed, prone to aggregate; the authors suspect a disrupted Mad1 conformation; also called F629A mutant; source: E. coli Rosetta 2 (DE3), purified (Strep-Tactin, TEV cleavage, Resource Q, Superdex 75); not shown: double Strep, N-terminal, cleaved; His6, N-terminal, cleaved

Key:
[1] = target: B3; test: AUC; sedimentation equilibrium; 20 µM Mad1^CTD with 20 or 40 µM Bub1^CD1 peptide; 20 mM HEPES pH 7.5, 100 mM NaCl, 1 mM TCEP; 20°C; two-species model; settings: both partners purified
Mad1^CTD R630A = target: T1, Mad1^CTD R630A; test: ITC; Bub1^CD1 peptide (0.3-1.5 mM) titrated into Mad1 (30-100 µM) in the cell; 20°C; 20 mM HEPES pH 7.5, 100 mM NaCl, 1 mM TCEP; single-site model; stoichiometry counted on dimeric Mad1^CTD; settings: both partners purified
Mad1^CTD I643A = target: T2, Mad1^CTD I643A; test: as above; settings: both partners purified
Mad1^CTD R650A = target: T3, Mad1^CTD R650A; test: as above; settings: both partners purified
[2] = target: T4, Mad1^CTD QRI triple mutant (Q627A, …); test: as above; settings: both partners purified
[3] = target: T5, Mad1^CTD QRRI quadruple mutant (Q627A, …); test: as above; settings: both partners purified
Mad1^CTD R617A = target: T6, Mad1^CTD R617A; test: as above; settings: both partners purified
Mad1^CTD K619A = target: T7, Mad1^CTD K619A; test: as above; settings: both partners purified
Mad1^CTD Q627A = target: T8, Mad1^CTD Q627A; test: as above; settings: both partners purified
[4] = target: the molecule itself; test: AUC; sedimentation equilibrium; 20 µM Mad1^CTD with 20 or 40 µM Bub1^CD1 peptide; 20 mM HEPES pH 7.5, 100 mM NaCl, 1 mM TCEP; 20°C; two-species model
[5] = target: the molecule itself; test: SEC-MALS; 100 µl of purified protein at 0.5-2.0 mg/ml on Superdex 200 Increase 10/300 GL, 0.5 ml/min

Binder: B1
stoichiometry N [1]: 1 peptide per Mad1^CTD dimer

Binder: B2
Kd (Mad1^CTD R630A): 10 µM | binding result (Mad1^CTD I643A): binds | binding result (Mad1^CTD R650A): binds | Kd [2]: 14.5 µM | Kd [3]: 25 µM | Kd (Mad1^CTD R617A): 3000 µM | Kd (Mad1^CTD K619A): 10 µM | binding result (Mad1^CTD Q627A): binds

Binder: B3
stoichiometry N [4]: 2

Binder: B4
stoichiometry N [5]: 2

Binder: B5
stoichiometry N [5]: 2
